Patent US20110110934A1

Target: mG-CSF (recombinant murine G-CSF, R&D Systems Cat #414-CS) (mouse) (UniProt P09920)
Test: cell-based or functional assay

Sequence of UniProt P09920 (P09920 31-208 limits assumed): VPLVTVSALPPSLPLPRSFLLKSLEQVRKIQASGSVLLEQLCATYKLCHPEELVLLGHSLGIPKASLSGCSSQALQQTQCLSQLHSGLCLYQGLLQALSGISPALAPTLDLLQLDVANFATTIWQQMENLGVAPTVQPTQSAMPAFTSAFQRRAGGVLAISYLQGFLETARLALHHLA

inhibition of mG-CSF proliferation of hG-CSFR BaF3 cells (MTS reduction, 48 hours), IC50 [nM]	Substance
0.01	Anti-G-CSF (MAB414) (antibody)
0.022	soluble hG-CSFR-Fc protein (from UniProt Q99062 25-627) (Fc fusion)
